The text below walks through data of article PMC11912406 (Proceedings of the National Academy of Sciences of the …, 2025).

The target of test [1] is cell-surface, GPI-anchored murine JUNO on HEK293F cells (murine) (UniProt Q9EQF4). Put plainly: flow cytometry on cells. In general terms: In flow cytometry, cells or beads pass a laser one at a time.
Test [2] has as its target cell-surface, GPI-anchored hamster JUNO on HEK293F cells (hamster). Put plainly: flow cytometry on cells.
Test [3] deals with recombinant murine IZUMO1-human Fc fusion protein (murine) (UniProt Q9D9J7). Put plainly: BLI. For orientation: BLI is a label-free optical method that tracks binding on a fibre tip over time.
The target of test [4] is IZUMO1-Fc prebound to OBF13 (IgM) (murine) (UniProt Q9D9J7). In words: BLI.
Test [5] has as its target IZUMO1-Fc prebound to OBF13^HAC (scFv) (murine) (UniProt Q9D9J7). In words: BLI.
For test [6], the target named is T1, cell-surface, GPI-anchored murine JUNO on HEK293F cells (murine, UniProt Q9EQF4 20-222).
T1 sequence: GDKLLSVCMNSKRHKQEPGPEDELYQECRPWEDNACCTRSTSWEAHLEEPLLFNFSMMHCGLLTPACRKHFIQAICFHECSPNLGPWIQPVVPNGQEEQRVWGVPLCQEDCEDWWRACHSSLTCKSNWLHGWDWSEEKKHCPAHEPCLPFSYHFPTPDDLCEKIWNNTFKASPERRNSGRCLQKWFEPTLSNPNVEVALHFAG
In words: flow cytometry on cells.

The target in test [7] is cell-surface, GPI-anchored hamster JUNO on HEK293F cells (hamster). Put plainly: flow cytometry on cells. This is another data set of the same source.

Where two headings read alike, the source gives them in different places.

For orientation: EC50 means the concentration giving half of the maximal effect. Broadly, the Kd is a measure of binding affinity in units of concentration.

Turning to “IZUMO1-Fc prebound to OBF13 (IgM) (from UniProt Q9D9J7 22-319) (complex)”, the results for the EC50 in test [1] and in test [2] were 551 nM and 1.4 nM, respectively.

As to “hamster JUNO ectodomain (domain or fragment)”, in test [3], the Kd was 659 nM. The fold decrease in kon against IZUMO1 alone in test [4] and in test [5] was 2 fold each time.

As for “murine JUNO ectodomain (domain or fragment)”, the Kd was determined as 11000 nM in test [3], 30100 nM in test [4] and 33800 nM in test [5]. Moreover, the fold decrease in kon against IZUMO1 alone in test [4] and in test [5] was 3 fold throughout.

B1: recombinant murine IZUMO1-human Fc fusion protein (Fc fusion)
chain: CIKCDQFVTDALKTFENTYLNDHLPHDIHKNVMRMVNHEVSSFGVVTSAEDSYLGAVDENTLEQATWSFLKDLKRITDSDLKGELFIKELLWMLRHQKDIFNNLARQFQKEVLCPNKCGVMSQTLIWCLKCEKQLHICRKSLDCGERHIEVHRSEDLVLDCLLSWHRASKGLTDYSFYRVWENSSETLIAKGKEPYLTKSMVGPEDAGNYRCVLDTINQGHATVIRYDVTVLPPKHSEENQPPNIITQEEHETPVHVTPQTPPGQEPESELYPELHPELYPELIPTVAQNPEKKMKTR
On to B1, for which the half-maximal effective concentration (EC50) in test [6] stood at 10.7 nM; in test [7], 0.198 nM.
